Assay [1] deals with 牛血清白蛋白(BSA) (bovine) (UniProt P02769). As to the kind of experiment: ELISA, BSA coated at 1 ug/ml, biotin-labelled antibody at dilution 1K, HRP-avidin. For orientation: ELISA stands for enzyme-linked immunosorbent assay.
For assay [2] the target is unchanged. As to the kind of experiment: ELISA, BSA coated at 1 ug/ml, biotin-labelled antibody at dilution 2K, HRP-avidin.
Assay [3] shares this target. As to the kind of experiment: ELISA, BSA coated at 1 ug/ml, biotin-labelled antibody at dilution 4K, HRP-avidin.
The target is the same in assay [4]. Nature of the assay: ELISA, BSA coated at 1 ug/ml, biotin-labelled antibody at dilution 8K, HRP-avidin.
Assay [5] has the same target. Nature of the assay: ELISA, BSA coated at 1 ug/ml, biotin-labelled antibody at dilution 16K, HRP-avidin.
For assay [6] the target is unchanged. As to the kind of experiment: ELISA, BSA coated at 1 ug/ml, biotin-labelled antibody at dilution 32K, HRP-avidin.
Assay [7] shares this target. As to the kind of experiment: ELISA, BSA coated at 1 ug/ml, biotin-labelled antibody at dilution 64K, HRP-avidin.
For assay [8] the target is unchanged. As to the kind of experiment: ELISA, BSA coated at 1 ug/ml, biotin-labelled antibody at dilution 128K, HRP-avidin.
Assay [9] shares this target. Nature of the assay: ELISA, BSA coated at 1 ug/ml, biotin-labelled antibody at dilution 256K, HRP-avidin.
Assay [10] shares this target. As to the kind of experiment: ELISA, BSA coated at 1 ug/ml, biotin-labelled antibody at dilution 512K, HRP-avidin.
Assay [11] shares this target. Nature of the assay: ELISA, BSA coated at 1 ug/ml, biotin-labelled antibody at dilution 1024K, HRP-avidin.
Assay [12] has the same target. As to the kind of experiment: indirect ELISA, BSA coated at 1 ug/ml, purified antibody at dilution 1K, HRP goat anti-mouse IgG.
The target is the same in assay [13]. As to the kind of experiment: indirect ELISA, BSA coated at 1 ug/ml, purified antibody at dilution 2K, HRP goat anti-mouse IgG.
Assay [14] shares this target. As to the kind of experiment: indirect ELISA, BSA coated at 1 ug/ml, purified antibody at dilution 4K, HRP goat anti-mouse IgG.
For assay [15] the target is unchanged. As to the kind of experiment: indirect ELISA, BSA coated at 1 ug/ml, purified antibody at dilution 8K, HRP goat anti-mouse IgG.
Assay [16] shares this target. Nature of the assay: indirect ELISA, BSA coated at 1 ug/ml, purified antibody at dilution 16K, HRP goat anti-mouse IgG.
For assay [17] the target is unchanged. Nature of the assay: indirect ELISA, BSA coated at 1 ug/ml, purified antibody at dilution 32K, HRP goat anti-mouse IgG.
Assay [18] has the same target. As to the kind of experiment: indirect ELISA, BSA coated at 1 ug/ml, purified antibody at dilution 64K, HRP goat anti-mouse IgG.
The target is the same in assay [19]. Nature of the assay: indirect ELISA, BSA coated at 1 ug/ml, purified antibody at dilution 128K, HRP goat anti-mouse IgG.
For assay [20] the target is unchanged. As to the kind of experiment: indirect ELISA, BSA coated at 1 ug/ml, purified antibody at dilution 256K, HRP goat anti-mouse IgG.
The target is the same in assay [21]. As to the kind of experiment: indirect ELISA, BSA coated at 1 ug/ml, purified antibody at dilution 512K, HRP goat anti-mouse IgG.
The target is the same in assay [22]. As to the kind of experiment: indirect ELISA, BSA coated at 1 ug/ml, purified antibody at dilution 1024K, HRP goat anti-mouse IgG.

Chain of UniProt P02769 (P02769 25-607): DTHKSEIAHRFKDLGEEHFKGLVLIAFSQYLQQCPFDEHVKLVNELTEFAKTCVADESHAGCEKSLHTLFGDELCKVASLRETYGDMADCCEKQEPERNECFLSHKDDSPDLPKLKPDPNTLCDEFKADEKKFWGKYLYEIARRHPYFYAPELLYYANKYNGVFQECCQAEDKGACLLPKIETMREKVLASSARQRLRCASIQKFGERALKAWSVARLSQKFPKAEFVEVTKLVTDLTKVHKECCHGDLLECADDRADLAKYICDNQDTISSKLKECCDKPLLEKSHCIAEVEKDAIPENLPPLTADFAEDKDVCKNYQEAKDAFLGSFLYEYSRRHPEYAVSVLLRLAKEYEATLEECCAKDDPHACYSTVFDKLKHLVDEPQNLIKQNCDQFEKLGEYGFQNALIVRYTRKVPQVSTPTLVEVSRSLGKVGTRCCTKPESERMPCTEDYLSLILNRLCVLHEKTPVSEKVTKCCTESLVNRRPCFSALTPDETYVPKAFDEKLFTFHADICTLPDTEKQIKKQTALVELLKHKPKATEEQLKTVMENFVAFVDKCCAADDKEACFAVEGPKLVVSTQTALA

B1: BSA抗体B6 (antibody, V domains shown)
VH: VQLQESGAELVKPGASVKLSCKASGYTFTGQYVSWVKQRPGQGLEWIGEDNKSSRQGTEYSKATLTVDKSSSTAYMQLSSLTSEDSAVYYCTRDEVRSETYWGQGTTVTVSS
VL: DIVLTQSPATLSVTPGDSVSLSCRTEDKSLSYHWFQQKSHESPRLLIKDAYQKISGIPSRFNGCGSGTDFTLNINSVETEDFGMFFCQTSGWTHFGSGTKLEIKR
Consider B1, for which the OD450 is 2.39 in the assay with 牛血清白蛋白(BSA) (bovine) [1]; 2.11 in the assay with 牛血清白蛋白(BSA) (bovine) [2]; 1.9 with 牛血清白蛋白(BSA) (bovine) [3]; 1.66 with 牛血清白蛋白(BSA) (bovine) [4]; 1.42 with 牛血清白蛋白(BSA) (bovine) [5]; 1.13 in the assay with 牛血清白蛋白(BSA) (bovine) [6]. Further, the OD450 in the assay with 牛血清白蛋白(BSA) (bovine) [7] stood at 0.885; with 牛血清白蛋白(BSA) (bovine) [8], 0.677; in the assay with 牛血清白蛋白(BSA) (bovine) [9], 0.431; with 牛血清白蛋白(BSA) (bovine) [10], 0.332; in the assay with 牛血清白蛋白(BSA) (bovine) [11], 0.15; in the assay with 牛血清白蛋白(BSA) (bovine) [12], 2.21. Further, the OD450 amounted to 1.64 with 牛血清白蛋白(BSA) (bovine) [13]; 0.981 with 牛血清白蛋白(BSA) (bovine) [14]; 0.846 in the assay with 牛血清白蛋白(BSA) (bovine) [15]; 0.648 with 牛血清白蛋白(BSA) (bovine) [16]; 0.538 with 牛血清白蛋白(BSA) (bovine) [17]; 0.454 in the assay with 牛血清白蛋白(BSA) (bovine) [18]. In addition, the OD450 came to 0.371 with 牛血清白蛋白(BSA) (bovine) [19], 0.269 with 牛血清白蛋白(BSA) (bovine) [20], 0.184 with 牛血清白蛋白(BSA) (bovine) [21] and 0.161 with 牛血清白蛋白(BSA) (bovine) [22].

For the origin of these results see CN114591430A.
